From PMC8674358, “Decoding non-canonical mRNA decay by the endoplasmic-reticulum stress sensor IRE1α” (Nature Communications, 2021)

Molecular target: the molecule itself
Assay: cross-linking; 1 μg IRE1-KR (~0.8 μM) or various concentrations in RNA cleavage buffer (20 mM HEPES pH 7.5, 50 mM K acetate, 1 mM Mg acetate, 0.05% Triton X-100), 250 μM DSS, 1 h on ice; SDS-PAGE and IRE1α immunoblot; also with CRUK-3 (5 µM), which augmented KR-0P dimerization and oligomerization

B1: IRE1-KR-R887A, unphosphorylated (domain or fragment, human, UniProt O75460 547-977, looked up)
chain: GSSPSLEQDDGDEETSVVIVGKISFCPKDVLGHGAEGTIVYRGMFDNRDVAVKRILPECFSFADREVQLLRESDEHPNVIRYFCTEKDRQFQYIAIELCAATLQEYVEQKDFAHLGLEPITLLQQTTSGLAHLHSLNIVHRDLKPHNILISMPNAHGKIKAMISDFGLCKKLAVGRHSFSRRSGVPGTEGWIAPEMLSEDCKENPTYTVDIFSAGCVFYYVISEGSHPFGKSLQRQANILLGACSLDCLHPEKHEDVIARELIEKMIAMDPQKRPSAKHVLKHPFFWSLEKQLQFFQDVSDRIEKESLDGPIVKQLERGGRAVVKMDWRENITVPLQTDLAKFRTYKGGSVRDLLRAMRNKKHHYRELPAEVRETLGSLPDDFVCYFTSRFPHLLAHTYRAMELCSHERLFQPYYFHEPPEPQPPVTPDAL
notes: IRE1α, human, kinase-endoribonuclease (KR) module, residues G547-L977, with R887A; also called unphosphorylated R887A; source: SF9 cells, purified in-house following the same procedure as IRE1α KR; not shown: His6, N-terminal, cleaved
For B1, which “stoichiometry N” value is on record?
Its value is 2.

B2: IRE1-KR-R887A, phosphorylated (domain or fragment, human, UniProt O75460 547-977, looked up)
chain: B1 chain
modifications: phosphorylated (allowed to autophosphorylate in the presence of ATP and MgCl2); sites not stated for this mutant
notes: IRE1α, human, kinase-endoribonuclease (KR) module, residues G547-L977, with R887A; also called phosphorylated IRE1-KR-R887A; IRE1-KR-3P R887A; source: SF9 cells, purified in-house following the same procedure as IRE1α KR; autophosphorylated with 2 mM ATP and 10 mM MgCl2, then SEC; not shown: His6, N-terminal, cleaved
For B2, which “stoichiometry N” value is on record?
The value was 2.
